Laboratory results as given in patent US11352401.

B1: FLDSQNLSAY (SEQ ID NO: 144) (peptide)
peptide: FLDSQNLSAY
B2: FVDKPVAY (SEQ ID NO: 145) (peptide)
peptide: FVDKPVAY
B3: HSDLKVGEY (SEQ ID NO: 151) (peptide)
peptide: HSDLKVGEY
B4: HTDSLHLLI (SEQ ID NO: 152) (peptide)
peptide: HTDSLHLLI
B5: KLDRSVFTAY (SEQ ID NO: 153) (peptide)
peptide: KLDRSVFTAY
B6: LLDISQKNLY (SEQ ID NO: 154) (peptide)
peptide: LLDISQKNLY
B7: LLDSLREQY (SEQ ID NO: 156) (peptide)
peptide: LLDSLREQY
B8: LTEAVLNRY (SEQ ID NO: 160) (peptide)
peptide: LTEAVLNRY
B9: LVDDGTHGQY (SEQ ID NO: 161) (peptide)
peptide: LVDDGTHGQY
B10: LVDNSIRELQY (SEQ ID NO: 162) (peptide)
peptide: LVDNSIRELQY
B11: NSDSSLTLREFY (SEQ ID NO: 163) (peptide)
peptide: NSDSSLTLREFY
B12: NTDPTAPPY (SEQ ID NO: 165) (peptide)
peptide: NTDPTAPPY
B13: NTQITDIGRY (SEQ ID NO: 166) (peptide)
peptide: NTQITDIGRY
B14: QSDPGTSVLGY (SEQ ID NO: 167) (peptide)
peptide: QSDPGTSVLGY
B15: RTDSCSSAQAQY (SEQ ID NO: 172) (peptide)
peptide: RTDSCSSAQAQY
B16: SRTINVSNLY (SEQ ID NO: 176) (peptide)
peptide: SRTINVSNLY
B17: TADGKTYYY (SEQ ID NO: 181) (peptide)
peptide: TADGKTYYY
B18: TDYHVRVY (SEQ ID NO: 182) (peptide)
peptide: TDYHVRVY
B19: TSAHPEDSSFY (SEQ ID NO: 184) (peptide)
peptide: TSAHPEDSSFY
B20: TTDIIEKY (SEQ ID NO: 186) (peptide)
peptide: TTDIIEKY
B21: VADLHLYLY (SEQ ID NO: 187) (peptide)
peptide: VADLHLYLY
B22: VSDAKLDKY (SEQ ID NO: 188) (peptide)
peptide: VSDAKLDKY
B23: VTDGINPLIDRY (SEQ ID NO: 190) (peptide)
peptide: VTDGINPLIDRY
B24: VTDGSLYEGVAY (SEQ ID NO: 191) (peptide)
peptide: VTDGSLYEGVAY
B25: VVDSVGGYLY (SEQ ID NO: 195) (peptide)
peptide: VVDSVGGYLY
B26: YADTVRPEFY (SEQ ID NO: 197) (peptide)
peptide: YADTVRPEFY
B27: ASEQQALHTVQY (SEQ ID NO: 398) (peptide)
peptide: ASEQQALHTVQY
B28: ATDISRQNEY (SEQ ID NO: 400) (peptide)
peptide: ATDISRQNEY
B29: DTDSQRLAY (SEQ ID NO: 402) (peptide)
peptide: DTDSQRLAY
B30: ELDSKVEVLTY (SEQ ID NO: 403) (peptide)
peptide: ELDSKVEVLTY

biological target: T1, HLA-A*01 (human); assay: UV peptide-exchange ELISA; +++ = yield >50%
T1 construct: MHC monomer made peptide-receptive by UV cleavage of a UV-sensitive ligand; also called peptide-receptive MHC class I monomer
Text: Candidate peptides for T cell based therapies according to the present invention were further tested for their MHC binding capacity (affinity). The individual peptide-MHC complexes were produced by UV-ligand exchange, where a UV-sensitive peptide is cleaved upon UV-irradiation, and exchanged with the peptide of interest as analyzed. Only peptide candidates that can effectively bind and stabilize the peptide-receptive MHC molecules prevent dissociation of the MHC complexes. To determine the yield of the exchange reaction, an ELISA was performed based on the detection of the light chain (β2m) of stabilized MHC complexes. The assay was performed as generally described in Rodenko et al. (Rodenko et al., 2006).
96 well MAXISorp plates (NUNC) were coated over night with 2 ug/ml streptavidin in PBS at room temperature, washed 4× and blocked for 1 h at 37° C. in 2% BSA containing blocking buffer. […] Peptide-MHC monomers of the UV-exchange reaction were diluted 100-fold in blocking buffer. Samples were incubated for 1 h at 37° C., washed four times, incubated with 2 ug/ml HRP conjugated anti-β2m for 1h at 37° C., washed again and detected with TMB solution that is stopped with […]. Absorption was measured at 450 nm.

Peptide exchange yield, 50 to 75%:
B1
B2
B3
B4
B5
B6
B7
B8
B9
B10
B11
B12
B13
B14
B15
B16
B17
B18
B19
B20
B21
B22
B23
B24
B25
B26
B27
B28
B29
B30
